In paper PMC4891260 (2015):

Molecular target: T1, DEAD box helicase p68 S551F (mp68) peptide on H-2Kb (mouse)
T1 peptide: SNFVFAGI
Experiment: killing

B1: 1D9 TCR (TCR)
alpha TRAV1 TRAJ30 CDR3: CAVRSDTNAYKVIF
beta TRBV19 TRBJ2-7 CDR3: CASSKRLSSYEQYF
- binding result: recognises
